Experimental data taken from US20180009871A1 (INTARCIA THERAPEUTICS, published 2018).
Where no end group is shown, it is not given here. [ ]: non-standard residue; d: D form. Aib = CC(C)(N)C(=O)O

T1: hGIPR (human, UniProt P48546 22-466, limits assumed)
T1 sequence (looked up): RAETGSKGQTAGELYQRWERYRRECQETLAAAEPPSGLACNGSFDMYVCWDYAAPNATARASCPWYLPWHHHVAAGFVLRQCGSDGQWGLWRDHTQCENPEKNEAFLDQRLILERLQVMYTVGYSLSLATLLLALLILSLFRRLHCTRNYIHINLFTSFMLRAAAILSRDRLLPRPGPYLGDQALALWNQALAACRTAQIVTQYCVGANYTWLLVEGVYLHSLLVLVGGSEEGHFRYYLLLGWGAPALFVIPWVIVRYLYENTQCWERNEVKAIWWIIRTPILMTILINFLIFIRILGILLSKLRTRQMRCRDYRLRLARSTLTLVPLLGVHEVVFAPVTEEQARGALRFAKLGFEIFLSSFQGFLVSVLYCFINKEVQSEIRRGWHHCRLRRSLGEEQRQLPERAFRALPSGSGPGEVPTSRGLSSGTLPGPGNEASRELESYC


Tests used:
Assay in all cases: cell-based or functional assay
[1] = biological target: human glucagon receptor (GCGR) (human, UniProt P47871 26-477)
[2] = biological target: human GLP-1 receptor (GLP-1R) (human, UniProt P43220 24-463)
Target sequence in this assay (P43220 24-463): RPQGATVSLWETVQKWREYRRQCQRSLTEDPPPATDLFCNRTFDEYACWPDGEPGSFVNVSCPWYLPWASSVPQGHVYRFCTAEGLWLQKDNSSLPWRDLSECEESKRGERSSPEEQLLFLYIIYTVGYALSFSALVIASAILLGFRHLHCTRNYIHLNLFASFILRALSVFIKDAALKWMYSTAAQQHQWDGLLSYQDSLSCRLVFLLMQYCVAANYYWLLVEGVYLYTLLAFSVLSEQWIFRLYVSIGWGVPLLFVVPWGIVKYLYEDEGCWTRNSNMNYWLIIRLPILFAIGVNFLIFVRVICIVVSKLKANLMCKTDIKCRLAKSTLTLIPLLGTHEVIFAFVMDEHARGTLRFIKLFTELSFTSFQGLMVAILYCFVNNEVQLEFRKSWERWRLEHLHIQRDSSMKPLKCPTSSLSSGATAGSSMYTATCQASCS

[3] = biological target: T2, human glucagon receptor (GCGR) (human, UniProt P47871 26-477); remark: listed apart in the source
[4] = biological target: T3, human GLP-1 receptor (GLP-1R) (human, UniProt P43220 24-463); remark: listed apart in the source
T3 sequence (P43220 24-463): as above

hGIPR = biological target: T1, hGIPR
[5] = biological target: T2, human glucagon receptor (GCGR); remark: listed apart in the source
[6] = biological target: T3, human GLP-1 receptor (GLP-1R); remark: listed apart in the source

| Binder | hGCGR pEC50 (cAMP) mean (n = 9): 11 point curve starting at 1 uM [1] | hGLP1 pEC50 (cAMP) mean (n = 9): 11 point curve starting at 500 uM [2] | Human in vitro Potency (pEC50), hGCGR [3] | Human in vitro Potency (pEC50), hGLP-1R [4] | Human in vitro Potency (pEC50), hGIPR (hGIPR) | GluR pEC 50 [5] | GLP-1R pEC 50 [6] |
| --- | --- | --- | --- | --- | --- | --- | --- |
| YSHGTFTSDYSKYLD[Aib]KYAQEFV[Aib]WLEDEPSSGAPPPS-OH (N-terminus assumed; SMILES CC(C)C[C@H](NC(=O)[C@H](Cc1ccc(O)cc1)NC(=O)[C@H](CCCCN)NC(=O)[C@H](CO)NC(=O)[C@H](Cc1ccc(O)cc1)NC(=O)[C@H](CC(=O)O)NC(=O)[C@H](CO)NC(=O)[C@@H](NC(=O)[C@H](Cc1ccccc1)NC(=O)[C@@H](NC(=O)CNC(=O)[C@H](Cc1c[nH]cn1)NC(=O)[C@H](CO)NC(=O)[C@@H](N)Cc1ccc(O)cc1)[C@@H](C)O)[C@@H](C)O)C(=O)N[C@@H](CC(=O)O)C(=O)NC(C)(C)C(=O)N[C@@H](CCCCN)C(=O)N[C@@H](Cc1ccc(O)cc1)C(=O)N[C@@H](C)C(=O)N[C@@H](CCC(N)=O)C(=O)N[C@@H](CCC(=O)O)C(=O)N[C@@H](Cc1ccccc1)C(=O)N[C@H](C(=O)NC(C)(C)C(=O)N[C@@H](Cc1c[nH]c2ccccc12)C(=O)N[C@@H](CC(C)C)C(=O)N[C@@H](CCC(=O)O)C(=O)N[C@@H](CC(=O)O)C(=O)N[C@@H](CCC(=O)O)C(=O)N1CCC[C@H]1C(=O)N[C@@H](CO)C(=O)N[C@@H](CO)C(=O)NCC(=O)N[C@@H](C)C(=O)N1CCC[C@H]1C(=O)N1CCC[C@H]1C(=O)N1CCC[C@H]1C(=O)N[C@@H](CO)C(=O)O)C(C)C) [Compound A1, listing 1 of 2 here] | 12.3 pEC50 | 5.2 pEC50 | – | – | – | – | – |
| YSHGTFTSDYSKYLD[Aib]KRAQEFVIWLEDEPSSGAPPPS-OH (N-terminus assumed; SMILES CC[C@H](C)[C@H](NC(=O)[C@@H](NC(=O)[C@H](Cc1ccccc1)NC(=O)[C@H](CCC(=O)O)NC(=O)[C@H](CCC(N)=O)NC(=O)[C@H](C)NC(=O)[C@H](CCCNC(=N)N)NC(=O)[C@H](CCCCN)NC(=O)C(C)(C)NC(=O)[C@H](CC(=O)O)NC(=O)[C@H](CC(C)C)NC(=O)[C@H](Cc1ccc(O)cc1)NC(=O)[C@H](CCCCN)NC(=O)[C@H](CO)NC(=O)[C@H](Cc1ccc(O)cc1)NC(=O)[C@H](CC(=O)O)NC(=O)[C@H](CO)NC(=O)[C@@H](NC(=O)[C@H](Cc1ccccc1)NC(=O)[C@@H](NC(=O)CNC(=O)[C@H](Cc1c[nH]cn1)NC(=O)[C@H](CO)NC(=O)[C@@H](N)Cc1ccc(O)cc1)[C@@H](C)O)[C@@H](C)O)C(C)C)C(=O)N[C@@H](Cc1c[nH]c2ccccc12)C(=O)N[C@@H](CC(C)C)C(=O)N[C@@H](CCC(=O)O)C(=O)N[C@@H](CC(=O)O)C(=O)N[C@@H](CCC(=O)O)C(=O)N1CCC[C@H]1C(=O)N[C@@H](CO)C(=O)N[C@@H](CO)C(=O)NCC(=O)N[C@@H](C)C(=O)N1CCC[C@H]1C(=O)N1CCC[C@H]1C(=O)N1CCC[C@H]1C(=O)N[C@@H](CO)C(=O)O) [Compound A4] | 11.8 pEC50 | < 5 pEC50 | – | – | – | – | – |
| YSQGTFTSDYSKYLDAARAQEFVKWLEDEPKSKSPPPS-NH2 [Compound A3] | 12.1 pEC50 | 6.7 pEC50 | – | – | – | – | – |
| YSHGTFTSDYSKYLD[Aib]KYAQEFV[Aib]WLEDEPSSGAPPPS-OH (N-terminus assumed; SMILES CC(C)C[C@H](NC(=O)[C@H](Cc1ccc(O)cc1)NC(=O)[C@H](CCCCN)NC(=O)[C@H](CO)NC(=O)[C@H](Cc1ccc(O)cc1)NC(=O)[C@H](CC(=O)O)NC(=O)[C@H](CO)NC(=O)[C@@H](NC(=O)[C@H](Cc1ccccc1)NC(=O)[C@@H](NC(=O)CNC(=O)[C@H](Cc1c[nH]cn1)NC(=O)[C@H](CO)NC(=O)[C@@H](N)Cc1ccc(O)cc1)[C@@H](C)O)[C@@H](C)O)C(=O)N[C@@H](CC(=O)O)C(=O)NC(C)(C)C(=O)N[C@@H](CCCCN)C(=O)N[C@@H](Cc1ccc(O)cc1)C(=O)N[C@@H](C)C(=O)N[C@@H](CCC(N)=O)C(=O)N[C@@H](CCC(=O)O)C(=O)N[C@@H](Cc1ccccc1)C(=O)N[C@H](C(=O)NC(C)(C)C(=O)N[C@@H](Cc1c[nH]c2ccccc12)C(=O)N[C@@H](CC(C)C)C(=O)N[C@@H](CCC(=O)O)C(=O)N[C@@H](CC(=O)O)C(=O)N[C@@H](CCC(=O)O)C(=O)N1CCC[C@H]1C(=O)N[C@@H](CO)C(=O)N[C@@H](CO)C(=O)NCC(=O)N[C@@H](C)C(=O)N1CCC[C@H]1C(=O)N1CCC[C@H]1C(=O)N1CCC[C@H]1C(=O)N[C@@H](CO)C(=O)O)C(C)C) [Compound A1, listing 2 of 2 here] | – | – | 12.3 pEC50 | 5.2 pEC50 | < 5 pEC50 | 10.6 pEC50 | < 6 pEC50 |
| YSHGTFTSDYSKYLDSARAQEFVKWLEDEPSSGAPPPS-NH2 [Compound A5] | 11.8 pEC50 | 5.8 pEC50 | – | – | – | – | – |
